{"source": "paper PMC5620058", "about": "“IL-12p35 induces expansion of IL-10 and IL-35-expressing regulatory B cells and ameliorates autoimmune disease” (Nature Communications, 2017)", "proteins": {"B1": {"name": "mouse recombinant IL-12p35 (rIL-12p35; HBM-p35-Flag-His) (natural protein, UniProt P43431 23-215, looked up)", "chain": "RVIPVSGPARCLSQSRNLLKTTDDMVKTAREKLKHYSCTAEDIDHEDITRDQTSTLKTCLPLELHKNESCLATRETSSTTRGSCLPPQKTSLMMTLCLGSIYEDLKMYQTEFQAINAALQNHNHQQIILDKGMLVAIDELMQSLNHNGETLRQKPPVGEADPYRVKMKLCILLHAFSTRVVTINRVMGYLSSA", "notes": "IL-12p35 (Il12a), mouse; cDNA amplified with the printed primers and cloned behind the honeybee melittin (HBM) secretion signal of pMIB; The same construct was obtained as a monomer (~27 kDa, FPLC fractions 29-30) and as a p35−p35 homodimer (~56-57 kDa, fractions 20-21); also called p35−p35; source: purified (Ni-NTA, Centricon filtration, Sephacryl S-200 and Superose-6 FPLC)"}}, "target": "the molecule itself", "assay": "AUC; sedimentation equilibrium, native conditions, non-reducing; peak fraction of Superose-6 further purified by Centricon filtration"}
{"protein": "B1", "values": [{"measurement": "stoichiometry N", "result": 2}]}
